Where two headings read alike, the source gives them in different places.

The target in experiment [1] is T1, biotinylated human NKG2D (human, UniProt P26718 78-216, limits assumed, biotinylated (site not stated)).
T1 construct: Surface-coated in biolayer interferometry (Octet); also called recombinant biotinylated NKG2D
T1 sequence (looked up): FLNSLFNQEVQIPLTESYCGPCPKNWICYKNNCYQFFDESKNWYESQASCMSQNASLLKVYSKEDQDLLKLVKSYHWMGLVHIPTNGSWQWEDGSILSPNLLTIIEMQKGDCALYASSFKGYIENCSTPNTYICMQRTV
Put plainly: BLI (Octet), Kd = kOFF/kON. (In general: Biolayer interferometry detects binding as a change in optical thickness at a sensor tip.)

Experiment [2] has as its target T1, biotinylated human NKG2D. Put plainly: BLI (Octet), coated biotinylated human NKG2D, 100 nM analyte.
For experiment [3], the target named is T2, human NKG2D-Fc (human, UniProt P26718 78-216, limits assumed).
T2 construct: construct not described; also called human NKG2D-Fc reagent; not shown: Fc part
T2 sequence (looked up): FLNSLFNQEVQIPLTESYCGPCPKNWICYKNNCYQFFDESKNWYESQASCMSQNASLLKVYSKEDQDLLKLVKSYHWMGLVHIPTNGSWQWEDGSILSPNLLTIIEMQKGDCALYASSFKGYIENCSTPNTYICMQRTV
Put plainly: competition ELISA, 2 nM human NKG2D-Fc on coated WT sMICA. An excerpt:
(§1) As for the NKG2D ligands (NKG2DLs) in the above example, we attached polypeptides directly to each of these 4 modified α1-α2 NKG2DLs using a linker peptide. The 4 His-tagged proteins (SEQ ID NOs.: 131-134) were expressed in insect cells and purified to characterize their NKG2D binding affinities and kinetic binding parameters. Using a competitive binding ELISA, we determined the relative NKG2D binding affinities of the 4 modified α1-α2 variants.
For orientation: In an ELISA, binding on a coated surface is turned into a signal by an enzyme label.

In experiment [4] the target is T2, human NKG2D-Fc. As to the kind of experiment: competition ELISA, human NKG2D-Fc on coated WT sMICA.
Source text: as §1

Experiment [5] deals with T3, integrin αVβ5 (UniProt P06756 31-992; P18084 24-719).
T3 construct: Coated on the ELISA plate
As to the kind of experiment: phage ELISA, coated integrin, anti-M13-HRP.

The target in experiment [6] is T4, integrin αVβ3 (UniProt P06756 31-992; P05106 27-718).
T4 construct: Coated on the ELISA plate
Put plainly: phage ELISA, coated integrin, anti-M13-HRP.

Experiment [7] concerns the target T3, integrin αVβ5. Put plainly: phage ELISA, coated integrin, anti-M13-HRP. How it is done: (§2) The phage vectors were independently transformed into NEBαF′tet competent E. coli cells. Phages produced by the transformed cells were tittered and their concentrations adjusted by dilution to 10¹³ per ml. The ability of the soluble MICA molecules in each of the phage preparations was assayed by an ELISA using the intended target proteins, integrin αVβ3 or αVβ5, as capture agents on the ELISA plate. After the respective integrins were adhered to the bottoms of the wells of the ELISA plate, the wells were washed and blocked, as well known in the field. Each sample (100 μl) of phage preparation was added to wells containing αVβ3 or αVβ5, incubated and washed. The phages captured by the integrins were detected by HRP-conjugated antibody to the M13 phage coat developed with Ultra TMB-ELISA substrate and the optical densities read.
The source holds these as a separate data set.

Experiment [8] has as its target T3, integrin αVβ5. As to the kind of experiment: phage ELISA, coated integrin, anti-M13-HRP. How it is done:
(§3) The ELISA assays of the integrin target-binding of M13 phages displaying α3 domains with binding peptide inserts grafted into more than one loop were performed as follows. After the respective integrins were adhered to the bottoms of the wells of the ELISA plate, the wells were washed and blocked. Each sample (100 μl) of phage preparation was added to wells containing αVβ3 or αVβ5, incubated and washed. The phages captured by the integrins were detected by HRP-conjugated antibody to the M13 phage coat developed with Ultra TMB-ELISA substrate and the optical densities read.
The source holds these as a separate data set.

Experiment [9] deals with T4, integrin αVβ3. As to the kind of experiment: phage ELISA, coated integrin, anti-M13-HRP. How it is done: as §3
This is another data set of the same source.

The target of experiment [10] is T4, integrin αVβ3. As to the kind of experiment: phage ELISA, coated integrin, anti-M13-HRP. The procedure: as §2
This is another data set of the same source.

T4 sequence (P06756 31-992, chain 1 of 2): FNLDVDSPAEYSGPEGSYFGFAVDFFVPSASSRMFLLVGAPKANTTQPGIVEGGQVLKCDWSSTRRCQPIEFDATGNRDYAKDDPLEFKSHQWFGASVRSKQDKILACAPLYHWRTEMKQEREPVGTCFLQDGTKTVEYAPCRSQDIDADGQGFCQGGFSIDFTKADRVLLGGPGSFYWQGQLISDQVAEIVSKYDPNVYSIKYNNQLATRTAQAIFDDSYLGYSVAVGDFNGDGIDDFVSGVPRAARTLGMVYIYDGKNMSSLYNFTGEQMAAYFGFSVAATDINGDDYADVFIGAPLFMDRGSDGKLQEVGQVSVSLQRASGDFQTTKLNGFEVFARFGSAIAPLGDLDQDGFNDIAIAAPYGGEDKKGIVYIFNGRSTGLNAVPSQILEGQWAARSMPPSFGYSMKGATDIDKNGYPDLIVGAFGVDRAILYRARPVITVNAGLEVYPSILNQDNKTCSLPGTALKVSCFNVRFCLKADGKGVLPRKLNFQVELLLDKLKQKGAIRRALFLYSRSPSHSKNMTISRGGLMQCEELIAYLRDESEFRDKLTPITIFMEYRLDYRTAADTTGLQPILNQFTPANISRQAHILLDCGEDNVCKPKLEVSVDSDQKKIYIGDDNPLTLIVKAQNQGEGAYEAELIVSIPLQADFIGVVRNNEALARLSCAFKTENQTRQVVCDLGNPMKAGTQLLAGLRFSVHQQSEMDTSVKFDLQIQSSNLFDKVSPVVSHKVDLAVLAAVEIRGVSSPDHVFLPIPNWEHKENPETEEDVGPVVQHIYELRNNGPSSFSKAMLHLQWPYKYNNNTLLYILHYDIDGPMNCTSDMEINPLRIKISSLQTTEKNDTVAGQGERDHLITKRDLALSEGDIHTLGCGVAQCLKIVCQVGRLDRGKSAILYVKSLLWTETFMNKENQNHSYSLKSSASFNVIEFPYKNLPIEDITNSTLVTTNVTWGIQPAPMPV
T4 sequence (P05106 27-718, chain 2 of 2): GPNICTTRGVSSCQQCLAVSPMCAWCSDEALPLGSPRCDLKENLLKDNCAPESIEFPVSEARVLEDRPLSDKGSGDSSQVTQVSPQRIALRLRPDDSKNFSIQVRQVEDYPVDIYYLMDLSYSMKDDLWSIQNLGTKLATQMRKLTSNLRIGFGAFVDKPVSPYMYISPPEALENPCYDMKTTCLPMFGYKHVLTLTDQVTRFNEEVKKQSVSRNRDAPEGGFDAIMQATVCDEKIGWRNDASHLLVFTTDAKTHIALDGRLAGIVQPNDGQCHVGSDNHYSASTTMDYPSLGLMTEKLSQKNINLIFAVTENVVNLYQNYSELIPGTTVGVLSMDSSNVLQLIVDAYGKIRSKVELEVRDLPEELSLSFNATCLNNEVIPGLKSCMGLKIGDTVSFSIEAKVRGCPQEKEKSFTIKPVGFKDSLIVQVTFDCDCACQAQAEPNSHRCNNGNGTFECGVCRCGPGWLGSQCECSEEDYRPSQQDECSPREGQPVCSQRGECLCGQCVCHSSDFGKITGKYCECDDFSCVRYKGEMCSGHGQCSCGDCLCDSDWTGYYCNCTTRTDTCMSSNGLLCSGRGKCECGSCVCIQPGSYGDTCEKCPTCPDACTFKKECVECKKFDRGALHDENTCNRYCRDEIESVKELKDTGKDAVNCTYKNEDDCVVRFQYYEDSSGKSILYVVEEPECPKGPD
T3 sequence (P06756 31-992, chain 1 of 2): as the sequence (P06756 31-992, chain 1 of 2) above
T3 sequence (P18084 24-719, chain 2 of 2): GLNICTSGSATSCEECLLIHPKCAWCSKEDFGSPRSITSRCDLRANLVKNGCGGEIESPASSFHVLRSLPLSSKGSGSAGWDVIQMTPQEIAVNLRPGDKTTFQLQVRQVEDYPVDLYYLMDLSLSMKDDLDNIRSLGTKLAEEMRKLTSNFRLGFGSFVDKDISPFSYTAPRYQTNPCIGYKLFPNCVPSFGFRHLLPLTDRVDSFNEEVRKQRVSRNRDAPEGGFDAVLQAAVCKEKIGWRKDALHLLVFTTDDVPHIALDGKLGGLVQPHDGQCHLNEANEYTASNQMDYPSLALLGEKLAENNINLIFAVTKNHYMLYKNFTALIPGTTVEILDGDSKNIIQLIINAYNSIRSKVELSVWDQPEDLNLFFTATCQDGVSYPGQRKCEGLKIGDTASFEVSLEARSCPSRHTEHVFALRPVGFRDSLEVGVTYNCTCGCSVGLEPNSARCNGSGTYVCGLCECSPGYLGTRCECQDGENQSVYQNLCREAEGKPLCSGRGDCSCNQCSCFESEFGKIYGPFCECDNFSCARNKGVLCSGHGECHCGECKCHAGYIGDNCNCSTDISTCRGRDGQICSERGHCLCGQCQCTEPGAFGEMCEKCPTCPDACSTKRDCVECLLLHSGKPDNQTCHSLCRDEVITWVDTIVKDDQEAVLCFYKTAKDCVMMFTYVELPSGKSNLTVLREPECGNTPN

B1: WT α1-α2 domain soluble MICA protein (competitor and analyte) (ligand)
chain: EPHSLRYNLTVLSWDGSVQSGFLTEVHLDGQPFLRCDRQKCRAKPQGQWAEDVLGNKTWDRETRDLTGNGKDLRMTLAHIKDQKEGLHSLQEIRVCEIHEDNSTRSSQHFYYDGELFLSQNLETKEWTMPQSSRAQTLAMNVRNFLKEDAMKTKTHYHAMHADCLQELRRYLKSGVVLRRTVPPMVQVTRSEASGGSGDRVTITCRASQDVSTAVAWYQQKPGKAPKLLIYSASFLYSGVPSRFSGSGSGTDFTLTISSLQPEDFATYYCQQSYTTPPTFGQGTKVEIKGGSSRSSSSGGGGSGGGGEVQLVESGGGLVQPGGSLRLSCAASGFTFTSTGISWVRQAPGKGLEWVGRIYPTNGSTNYADSVKGRFTISADTSKNTAYLQMNSLRAEDTAVYYCARTYGIYDLYVDYTEYVMDYWGQGTLVTVSSGGSSRSSSSGGGGSGGGGDIQMTQSPSSLSASGGSGQITVTCRASGFYPWNITLSWRQDGVSLSHDTQQWGDVLPDGQGTYQTWVATRISQGEEQRFTCYMEHSGQHSTHPVPSGKGSHHHHHH
notes: also called wild-type (WT); WT MICA
As usually defined, the Kd is a measure of binding affinity in units of concentration. Higher therefore signals lower affinity. What is called koff is the first-order rate constant of dissociation. Read a high koff as a short-lived complex. The kon is the second-order rate constant of association. Higher therefore signals faster complex formation. One may read the IC50 as the concentration needed to halve the response being measured. Low values mean higher potency, high ones lower potency. B1 registered a Kd with biotinylated human NKG2D [1] of 13.8 nM. In the experiment with biotinylated human NKG2D [2], this molecule had a koff of 0.0018 s⁻¹ and an on-rate constant (kon) of 130000 M⁻¹ s⁻¹. Besides, the IC50 in the experiment with human NKG2D-Fc [3] came out at 19.4 nM.

B2: α1-α2 variant 15 (designed binder)
chain: EPHSLRYNLTVLSWDGSVQSGFLTEVHLDGQPFLRCDRQKCRAKPQGQWAEDVLGNKTWDRETRDLTGWGKDLRMTLAHIKDQKEGLHSLQEIRVCEIHEDNSTRSSQHFYYDGELFLSQNLETNEWTMPQSSRAQTLAMNVRNFLKEDAMETDTHYHAMRADCLQELRRYLKSGVVLRRTVPPMVQVTRSEASGGSGDRVTITCRASQDVSTAVAWYQQKPGKAPKLLIYSASFLYSGVPSRFSGSGSGTDFTLTISSLQPEDFATYYCQQSYTTPPTFGQGTKVEIKGGSSRSSSSGGGGSGGGGEVQLVESGGGLVQPGGSLRLSCAASGFTFTSTGISWVRQAPGKGLEWVGRIYPTNGSTNYADSVKGRFTISADTSKNTAYLQMNSLRAEDTAVYYCARTYGIYDLYVDYTEYVMDYWGQGTLVTVSSGGSSRSSSSGGGGSGGGGDIQMTQSPSSLSASGGSGQITVTCRASGFYPWNITLSWRQDGVSLSHDTQQWGDVLPDGQGTYQTWVATRISQGEEQRFTCYMEHSGQHSTHPVPSGKGSHHHHHH
notes: His-tagged protein from insect cells, modified α1-α2 domain with an attached polypeptide
In turn, B2 returned a Kd with biotinylated human NKG2D [1] of 1.5 nM. Besides, in the experiment with biotinylated human NKG2D [2], the koff was 0.00011 s⁻¹ and the kon is 70000 M⁻¹ s⁻¹. In the experiment with human NKG2D-Fc [4], the “fold better binding than WT NKG2DL (IC50)” value came out at 11 fold. Moreover, the IC50 with human NKG2D-Fc [3] stood at 1.7 nM.

B3: WED-MICA (WED-α1-α2 domain; N69W, K152E, K154D) (designed binder)
chain: EPHSLRYNLTVLSWDGSVQSGFLTEVHLDGQPFLRCDRQKCRAKPQGQWAEDVLGNKTWDRETRDLTGWGKDLRMTLAHIKDQKEGLHSLQEIRVCEIHEDNSTRSSQHFYYDGELFLSQNLETKEWTMPQSSRAQTLAMNVRNFLKEDAMETDTHYHAMHADCLQELRRYLKSGVVLRRTVPPMVQVTRSEASGGSGDRVTITCRASQDVSTAVAWYQQKPGKAPKLLIYSASFLYSGVPSRFSGSGSGTDFTLTISSLQPEDFATYYCQQSYTTPPTFGQGTKVEIKGGSSRSSSSGGGGSGGGGEVQLVESGGGLVQPGGSLRLSCAASGFTFTSTGISWVRQAPGKGLEWVGRIYPTNGSTNYADSVKGRFTISADTSKNTAYLQMNSLRAEDTAVYYCARTYGIYDLYVDYTEYVMDYWGQGTLVTVSSGGSSRSSSSGGGGSGGGGDIQMTQSPSSLSASGGSGQITVTCRASGFYPWNITLSWRQDGVSLSHDTQQWGDVLPDGQGTYQTWVATRISQGEEQRFTCYMEHSGQHSTHPVPSGKGSHHHHHH
notes: Whole entry as named
For the molecule B3, the “apparent Kd (pooled screen)” value in the experiment with biotinylated human NKG2D [1] amounted to 5.9 nM. Moreover, in the experiment with biotinylated human NKG2D [2], the “apparent koff (pooled screen)” value was 0.0017 s⁻¹ and the “apparent kon (pooled screen)” value came to 290000 M⁻¹ s⁻¹. Further, in the experiment with human NKG2D-Fc [3], the IC50 stood at 4.4 nM.

B4: M13 phage pKK109 displaying MICA α3 domain with tight loop 1 insert T-3.3 (designed binder, not shown: large carriers)
chain: TVPPMVNRVPRGDSDLTCRASGFYPWNITLSWRQDGVSLSHDTQQWGDVLPDGNGTYQTWVATRICQGEEQRFTCYMEHSGNHSTHPVPSGK
For B4, the αvβ5 signal in the experiment with integrin αVβ5 [5] was found to be 0.167 OD. The αvβ3 signal with integrin αVβ3 [6] turned out to be 0.23 OD.

B5: M13 phage pKK91 displaying MICA α3 domain with loop 3 insert His10sp (designed binder)
chain: TVPPMVNVTRSEASEGNITVTCRASGFYPWNITLSWRQDGVSLSHDTQQWGDVLPDGNGTYQTWVATRISGGSGGGSHHHHHHHHHHSGGSGGGCYMEHSGNHSTHPVPSGK
notes: also called 3-His10; not shown: C-terminal portion of M13 gene III protein, fused at codon position 198
B5 displayed a αvβ3 signal in the experiment with integrin αVβ3 [6] of 0.303 OD. This molecule yielded a αvβ5 signal with integrin αVβ5 [7] of 0.078 OD.

B6: M13 phage pKK93 displaying MICA α3 domain with loop 1 insert 3.2 (designed binder)
chain: TVPPMVNVTRTSRGDHPRTQVTCRASGFYPWNITLSWRQDGVSLSHDTQQWGDVLPDGNGTYQTWVATRICQGEEQRFTCYMEHSGNHSTHPVPSGK
notes: also called 1-3.2; not shown: C-terminal portion of M13 gene III protein, fused at codon position 198
For the molecule B6, the αvβ5 signal in the experiment with integrin αVβ5 [8] came to 0.774 OD; in the experiment with integrin αVβ5 [7], 0.291 OD. Moreover, the figures for the αvβ3 signal with integrin αVβ3 [9] and with integrin αVβ3 [10] were 0.616 OD and 0.284 OD, respectively.

B7: M13 phage pKK112 displaying MICA α3 domain with tight loop 1 insert T-AMY (loop 1 from tendamistat) (designed binder, not shown: large carriers)
chain: TVPPMVNYQSWRYSQCRASGFYPWNITLSWRQDGVSLSHDTQQWGDVLPDGNGTYQTWVATRICQGEEQRFTCYMEHSGNHSTHPVPSGK
With B7, in the experiment with integrin αVβ5 [5], the αvβ5 signal came to 0.515 OD. Further, the αvβ3 signal with integrin αVβ3 [6] came to 0.46 OD.

B8: M13 phage pKK100 displaying MICA α3 domain with loop 1 insert 3.2sp (designed binder, not shown: large carriers)
chain: TVPPMVNVTSGGSGGGSTSRGDHPRTQSGGSGGGVTCRASGFYPWNITLSWRQDGVSLSHDTQQWGDVLPDGNGTYQTWVATRICQGEEQRFTCYMEHSGNHSTHPVPSGK
For the molecule B8, in the experiment with integrin αVβ5 [5], the αvβ5 signal amounted to 0.186 OD. Besides, the αvβ3 signal with integrin αVβ3 [6] came out at 0.201 OD.

B9: M13 phage pKK102 displaying MICA α3 domain with loop 1 insert 5.1sp (designed binder)
chain: TVPPMVNVTSGGSGGGSVTRGDTFTQSSGGSGGGVTCRASGFYPWNITLSWRQDGVSLSHDTQQWGDVLPDGNGTYQTWVATRICQGEEQRFTCYMEHSGNHSTHPVPSGK
notes: also called 1-5.1sp; not shown: C-terminal portion of M13 gene III protein, fused at codon position 198
Take B9: the αvβ5 signal is 1.5 OD with integrin αVβ5 [8] and 0.771 OD with integrin αVβ5 [7]. The αvβ3 signal with integrin αVβ3 [9] was determined as 1.45 OD; with integrin αVβ3 [10], 1.02 OD.

B10: M13 phage pKK103 displaying MICA α3 domain with loop 1 insert 5.3sp (designed binder)
chain: TVPPMVNVTSGGSGGGSHLARGDDLTYSGGSGGGVTCRASGFYPWNITLSWRQDGVSLSHDTQQWGDVLPDGNGTYQTWVATRICQGEEQRFTCYMEHSGNHSTHPVPSGK
notes: also called 1-5.3sp; not shown: C-terminal portion of M13 gene III protein, fused at codon position 198
On to B10, for which the αvβ5 signal with integrin αVβ5 [8] was 0.814 OD; in the experiment with integrin αVβ5 [7], 0.491 OD. Moreover, the αvβ3 signal was determined as 0.587 OD in the experiment with integrin αVβ3 [9] and 0.688 OD in the experiment with integrin αVβ3 [10].

B11: M13 phage pKK95 displaying MICA α3 domain with loop 1 insert 3.4 (designed binder, not shown: large carriers)
chain: TVPPMVNVTRSARGDSDHRVTCRASGFYPWNITLSWRQDGVSLSHDTQQWGDVLPDGNGTYQTWVATRICQGEEQRFTCYMEHSGNHSTHPVPSGK
Regarding B11, in the experiment with integrin αVβ5 [5], the αvβ5 signal amounted to 0.232 OD. This molecule also gave a αvβ3 signal with integrin αVβ3 [6] of 0.345 OD.

For the origin of these results see US20150165065A1 (AVIDBIOTICS, published 2015).
